{
  "source": "patent US20090123479A1",
  "about": "(published 2009)",
  "binders": {"B1": {"name": "A3M1 (antibody, human IgG1, kappa, V domains shown)", "VH": "QVQLVQSGAEVKKPGSSVKVSCKASGYTFTSYGITWVRQAPGQGLEWMGENYPRSGNTYYNEKFKGRVTITADKSTSTAYMELSSLRSEDTAVYYCARSEFISTVVAPYYYALDYWGQGTLVTVSS", "VL": "DIVMTQSPDSLAVSLGERATINCKASKKVTIFGSISALHWYQQKPGQPPKLIYNGAKLESGVSDRFSDSGSQNRSPFGNQLSFTLTISSLQAEDVAVYYCLQNKEVPYTFGGGTKVEIKR", "notes": "Full length chains"}},
  "key": {"recombinant human IL-23 [1]": {"molecular_target": "T1, recombinant human IL-23 (human, UniProt Q9NPF7 20-189; P29460 23-328)", "T1 construct": "also called hIL-23", "T1 sequence 1": "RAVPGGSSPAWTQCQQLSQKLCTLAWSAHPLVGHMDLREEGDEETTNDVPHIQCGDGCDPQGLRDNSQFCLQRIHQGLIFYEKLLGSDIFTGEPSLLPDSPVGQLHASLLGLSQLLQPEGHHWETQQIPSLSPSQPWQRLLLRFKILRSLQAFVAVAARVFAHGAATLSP", "T1 sequence 2": "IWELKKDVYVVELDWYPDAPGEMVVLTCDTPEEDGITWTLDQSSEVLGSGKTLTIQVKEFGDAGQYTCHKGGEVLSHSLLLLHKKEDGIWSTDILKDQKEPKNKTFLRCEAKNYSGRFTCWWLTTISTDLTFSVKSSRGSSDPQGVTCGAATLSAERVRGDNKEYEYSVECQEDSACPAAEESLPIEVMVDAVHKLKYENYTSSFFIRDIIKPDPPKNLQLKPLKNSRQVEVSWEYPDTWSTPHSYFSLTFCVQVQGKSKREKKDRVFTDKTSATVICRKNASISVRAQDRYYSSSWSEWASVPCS", "experiment": "SPR (Biacore 3000), CHO supernatant antibody captured on Protein A or anti-human IgG, IL-23 analyte at 256, 64, 16, 4 nM"}, "recombinant human IL-23 [2]": {"molecular_target": "T1, recombinant human IL-23", "experiment": "SPR (Biacore T100), CHO supernatant antibody captured on Protein A or anti-human IgG, IL-23 analyte at 256, 64, 16, 4, 1 nM"}, "recombinant human IL-23 [3]": {"molecular_target": "T1, recombinant human IL-23", "experiment": "sandwich ELISA (optimised protocol, OD450): plate coated with anti-human IL-12, antibody pre-incubated with constant human IL-23, bound antibody detected with anti-human IgG gamma chain HRP; purified antibody", "experimental": "Optimised assay conditions: Plates were coated with anti human IL12 at 2 μg/diluent (phosphate buffered saline). 50 μl/well of this mixture was incubated overnight at 4° C. The plates were then washed three times with Phosphate Buffered Saline with 0.05% Tween 20 (PBST). Plates were blocked with 4% skim milk powder (Fluka BioChemika #70166) PBS 200 μl/well for a minimum of 1 hour at room temperature. The plates were then washed three times with Phosphate Buffered Saline+0.05% Tween 20 (PBST). Various concentrations of antibody were incubated in a separate plate with a constant concentration of IL-23 for 1 hour at room temperature. 50 ul of each mixture were transferred to the assay plate and incubated at RT for 1 hr. They were then washed three times with Phosphate Buffered Saline+0.05% Tween 20 (PBST). […] 50 μl/well of the detection antibody was added and incubated at RT for 1 hour. The plates were then washed three times with Phosphate Buffered Saline+0.05% Tween 20 (PBST). 50 μl/well of TMB was added to the plates and incubated at RT for 10 min. 50 μl/well of 1 MH₂SO₄ was added. The plate was read at OD450 nm using the SOftmaxPRO versamax plate reader."}, "recombinant human IL-23 [4]": {"molecular_target": "T1, recombinant human IL-23", "experiment": "IL-23/IL-23R inhibition ELISA (optimised protocol, OD450): plate coated with human IL23R Fc chimera, antibody pre-incubated with constant human IL-23, bound IL-23 detected with biotinylated anti-human IL-12; purified antibody", "experimental": "(§1) Optimised protocol: Plates were coated with human IL23R Fc chimera at […] (phosphate buffered saline). 50 μl/well of this mixture was incubated overnight at 4° C. The plates were then washed three times with Phosphate Buffered Saline with 0.05% Tween 20 (PBST). Plates were blocked with 4% skim milk powder (Fluka BioChemika #70166) PBST 100 μl/well for a minimum of 1 hour at room temperature. The plates were then washed three times with Phosphate Buffered Saline+0.05% Tween 20 (PBST). Various concentrations of antibody were incubated in a separate plate with a constant concentration of IL-23 for 1 hour at room temperature. 50 ul of each mixture were transferred to the assay plate and incubated at RT for 1 hr. They were then washed three times with Phosphate Buffered Saline+0.05% Tween 20 (PBST). Bound IL23 was detected by anti human 1L12 Biotin labelled Ab (R&D systems BAF219) diluted to 100 ng/ml in 4% skim milk powder (Fluka BioChemika #70166) PBST. 50 μl/well of the biotinylated antibody was added and incubated at RT for 1 hour. The plates were then washed three times with Phosphate Buffered Saline+0.05% Tween 20 (PBST). SA HRP (GE healthcare RPN4401) was diluted 1/4000 in 4% skim m ilk powder (Fluka BioChemika #70166) PBS, 50 μl/well was added to the plates. The plates were then washed three times with Phosphate Buffered Saline+0.05% Tween 20 (PBST). 50 ul/well of TMB was added to the plates and incubated at RT for 15 min. 25 μl/well of 3 MH₂SO₄ was added to the wells already containing TMB. The plate was read at OD450 nm using the SOftmaxPRO versamax plate reader."}, "recombinant human IL-23 [5]": {"molecular_target": "T1, recombinant human IL-23", "experiment": "IL-23/IL-23R inhibition ELISA (first protocol, OD490): plate coated with human IL23R Fc chimera, antibody pre-incubated with constant human IL-23, bound IL-23 detected with biotinylated anti-human IL-12; tissue culture supernatant", "experimental": "Chimeric and humanized mAbs were assessed for their ability to neutralise human IL-23 binding to human IL-23 receptor, and cyno IL23 binding to human IL23 receptor. Plates were coated with human IL23R Fc chimera at 1 μg/diluent (bicarbonate buffer). 50 μl/well of this mixture was incubated overnight at 4° C. The plates were then washed twice with Tris Buffered Saline with 0.05% Tween 20 (TBST). Plates were blocked with 1% BSA TBST 100 μl/well for a minimum of 1 hour at room temperature. The plates were then washed twice with Tris Buffered Saline with 0.05% Tween 20 (TBST). Various concentrations of antibody were incubated in a separate plate with a constant concentration of IL-23 for 1 hour at room temperature. 50 ul of each mixture were transferred to the assay plate and incubated at RT for 1 hr. They were then washed twice with Tris Buffered Saline with 0.05% Tween 20 (TBST). Bound IL23 was detected by anti human 1L12 Biotin labelled Ab (R&D systems BAF219) diluted to 100 ng/ml in 1% BSA TBST. 50 μl/well of the biotinylated antibody was added and incubated at RT for 1 hour. The plates were then washed twice with Tris Buffered Saline with 0.05% Tween 20 (TBST). ExtrAvidin-Peroxidase (Sigma E2886) was diluted 1/1000 in 1% BSA TBST, 50 μl/well was added to the plates. […] The plate was read at OD490 nm using the SOftmaxPRO versamax plate reader."}, "[6]": {"molecular_target": "T2, recombinant cynomologus IL-23 (cynomolgus, limits assumed)", "T2 construct": "also called cynomolgus IL-23; cyno IL23", "T2 chain 1": "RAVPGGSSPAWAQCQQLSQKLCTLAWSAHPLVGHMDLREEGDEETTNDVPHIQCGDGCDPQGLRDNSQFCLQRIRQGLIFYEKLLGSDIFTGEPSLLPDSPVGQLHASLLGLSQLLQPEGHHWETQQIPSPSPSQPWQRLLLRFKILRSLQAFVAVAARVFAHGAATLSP", "T2 chain 2": "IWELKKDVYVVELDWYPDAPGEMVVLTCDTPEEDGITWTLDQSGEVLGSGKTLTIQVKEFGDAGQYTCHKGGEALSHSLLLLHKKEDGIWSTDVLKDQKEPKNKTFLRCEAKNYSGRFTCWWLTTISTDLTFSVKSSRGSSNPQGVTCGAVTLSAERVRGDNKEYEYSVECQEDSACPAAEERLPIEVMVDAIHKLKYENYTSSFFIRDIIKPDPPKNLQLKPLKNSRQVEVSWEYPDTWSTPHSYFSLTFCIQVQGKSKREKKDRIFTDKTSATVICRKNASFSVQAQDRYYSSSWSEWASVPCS", "experiment": "IL-23/IL-23R inhibition ELISA (optimised protocol, OD450): plate coated with human IL23R Fc chimera, antibody pre-incubated with constant cynomolgus IL-23, bound IL-23 detected with biotinylated anti-human IL-12; purified antibody", "experimental": "as §1"}},
  "data": [
    {"binder": "B1", "values": [
      {"measurement": "Kd", "setting": "recombinant human IL-23 [1]", "value": 1.5, "unit": "nM"},
      {"measurement": "koff", "setting": "recombinant human IL-23 [1]", "value": 0.00036, "unit": "s⁻¹"},
      {"measurement": "kon", "setting": "recombinant human IL-23 [1]", "value": 240000, "unit": "M⁻¹ s⁻¹"},
      {"measurement": "Kd", "setting": "recombinant human IL-23 [2]", "value": 2.4, "unit": "nM"},
      {"measurement": "koff", "setting": "recombinant human IL-23 [2]", "value": 0.00031, "unit": "s⁻¹"},
      {"measurement": "kon", "setting": "recombinant human IL-23 [2]", "value": 130000, "unit": "M⁻¹ s⁻¹"},
      {"measurement": "EC50 (read off the curve)", "setting": "recombinant human IL-23 [3]", "value": "~0.04", "unit": "nM"},
      {"measurement": "IC50 (read off the curve)", "setting": "recombinant human IL-23 [4]", "value": "~0.5", "unit": "nM"},
      {"measurement": "IC50 (read off the curve)", "setting": "recombinant human IL-23 [5]", "value": "~10", "unit": "ng/mL"},
      {"measurement": "IC50 (read off the curve)", "setting": "[6]", "value": "~0.8", "unit": "nM"}
    ]}
  ]
}
